Assay results as given in US20060183687A1 (WALTER AND ELIZA HALL INSTITUTE OF MEDICAL RESEARCH, published 2006).

T1: Epstein-Barr virus BHRF-1 protein (Epstein-Barr virus, UniProt P03182 1-191)
T1 sequence: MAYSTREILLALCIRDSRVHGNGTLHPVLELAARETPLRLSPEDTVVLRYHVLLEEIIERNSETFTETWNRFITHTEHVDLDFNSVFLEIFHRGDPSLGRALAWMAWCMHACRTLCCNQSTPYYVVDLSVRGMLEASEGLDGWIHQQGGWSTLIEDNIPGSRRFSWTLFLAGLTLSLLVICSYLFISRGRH


Columns and labels:
human Bcl-2 [1] = target: T2, human Bcl-2 (human, UniProt P10415 1-239); experiment: immunoprecipitation and immunoblot from FDC-P1 cells (FIG. 8B)
T2 construct: also called wt Bcl-2

[2] = target: T1, Epstein-Barr virus BHRF-1 protein; experiment: immunoprecipitation from co-transfected 293T cells
human Bcl-2 [3] = target: T2, human Bcl-2; experiment: immunoprecipitation with anti-human Bcl-2 from FDC-P1 cells, anti-EE immunoblot
human Bcl-2 [4] = target: T2, human Bcl-2; experiment: yeast two-hybrid, beta-galactosidase activity with ONPG
dynein light chain = target: T3, dynein light chain (UniProt P63167 1-89, limits assumed); experiment: yeast two-hybrid, beta-galactosidase activity with ONPG; reference wild-type BimL
T3 construct: also called cytoplasmic dynein light chain

human Bcl-2 [5] = target: T2, human Bcl-2; experiment: immunoprecipitation and immunoblot from FDC-P1 cells

T2 sequence (P10415 whole entry): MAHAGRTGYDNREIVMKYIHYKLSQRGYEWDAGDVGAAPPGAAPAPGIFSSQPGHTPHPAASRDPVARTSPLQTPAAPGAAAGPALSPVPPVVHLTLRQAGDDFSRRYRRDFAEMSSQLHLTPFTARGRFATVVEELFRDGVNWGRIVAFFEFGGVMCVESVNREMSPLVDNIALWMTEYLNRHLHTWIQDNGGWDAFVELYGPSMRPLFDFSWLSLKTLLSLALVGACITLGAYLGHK
T3 sequence (P63167 whole entry): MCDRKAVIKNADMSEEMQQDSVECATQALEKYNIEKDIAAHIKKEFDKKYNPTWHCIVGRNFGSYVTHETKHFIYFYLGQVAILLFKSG

Binder | binding result (human Bcl-2 [4]) | activity compared to wild-type BimL (dynein light chain) | also measured
EE-tagged BimL (Glu-Glu epitope-tagged mouse BimL) (other, N-terminal EE tag from a pEF vector derivative; also called EE-BimL; EE BimL) EYMPMEMAKQPSDVSSECDREGGQLQPAERPPQLRPGAPTSLQTEPQDRSPAPMSCDKSTQTPSPPCQAFNHYLSAMASIRQSQEEPEDLRPEIRIAQELRRIGDEFNETYTRRVFANDYREAEDHPQMVILQLLRFIFRLVWRRH | – | – | binding result (human Bcl-2 [1]): binds; binding result [2]: no binding
EE-tagged BimS (other) EYMPMEMAKQPSDVSSECDREGGQLQPAERPPQLRPGAPTSLQTEPQASIRQSQEEPEDLRPEIRIAQELRRIGDEFNETYTRRVFANDYREAEDHPQMVILQLLRFIFRLVWRRH | – | – | binding result (human Bcl-2 [3]): binds
murine BimL (wild-type) (other, also called wild-type BimL; mBIM L) MAKQPSDVSSECDREGGQLQPAERPPQLRPGAPTSLQTEPQDRSPAPMSCDKSTQTPSPPCQAFNHYLSAMASIRQSQEEPEDLRPEIRIAQELRRIGDEFNETYTRRVFANDYREAEDHPQMVILQLLRFIFRLVWRRH | binds | – | –
BimL mutant D51G (other, also called D51G mutant) MAKQPSDVSSECDREGGQLQPAERPPQLRPGAPTSLQTEPQDRSPAPMSCGKSTQTPSPPCQAFNHYLSAMASIRQSQEEPEDLRPEIRIAQELRRIGDEFNETYTRRVFANDYREAEDHPQMVILQLLRFIFRLVWRRH | binds | – | –
BimL mutant T54A (other) MAKQPSDVSSECDREGGQLQPAERPPQLRPGAPTSLQTEPQDRSPAPMSCDKSAQTPSPPCQAFNHYLSAMASIRQSQEEPEDLRPEIRIAQELRRIGDEFNETYTRRVFANDYREAEDHPQMVILQLLRFIFRLVWRRH | binds | < 0.1% | –
BimL mutant S53P (other) MAKQPSDVSSECDREGGQLQPAERPPQLRPGAPTSLQTEPQDRSPAPMSCDKPTQTPSPPCQAFNHYLSAMASIRQSQEEPEDLRPEIRIAQELRRIGDEFNETYTRRVFANDYREAEDHPQMVILQLLRFIFRLVWRRH | binds | < 0.1% | –
BimL double mutant T54I/N65S (other, also called T541/N65S; double mutant T541/N65S) MAKQPSDVSSECDREGGQLQPAERPPQLRPGAPTSLQTEPQDRSPAPMSCDKSIQTPSPPCQAFSHYLSAMASIRQSQEEPEDLRPEIRIAQELRRIGDEFNETYTRRVFANDYREAEDHPQMVILQLLRFIFRLVWRRH | binds | < 0.1% | –
EE-BimL ΔBH3 mutant (other, also called EE-Bim ΔBH3) EYMPMEMAKQPSDVSSECDREGGQLQPAERPPQLRPGAPTSLQTEPQDRSPAPMSCDKSTQTPSPPCQAFNHYLSAMASIRQSQEEPEDLRPEIRIAQEALFNETYTRRVFANDYREAEDHPQMVILQLLRFIFRLVWRRH | – | – | binding result (human Bcl-2 [5]): no binding
EE-tagged BimEL (other) EYMPMEMAKQPSDVSSECDREGGQLQPAERPPQLRPGAPTSLQTEPQGNPDGEGDRCPHGSPQGPLAPPASPGPFATRSPLFIFVRRSSLLSRSSSGYFSFDTDRSPAPMSCDKSTQTPSPPCQAFNHYLSAMASIRQSQEEPEDLRPEIRIAQELRRIGDEFNETYTRRVFANDYREAEDHPQMVILQLLRFIFRLVWRRH | – | – | binding result (human Bcl-2 [3]): binds
